The labels stand for the following.
B1: GA-binding protein alpha chain, residues 172 to 250; numbered along this chain, Q06546 (parent)
chain: GYRKEQERLGIPYDPIQWSTDQVLHWVVWVMKEFSMTDIDLTTLNISGRELCSLNQEDFFQRVPRGEILWSHLELLRKY

± gives the uncertainty stated by the source.

The variants in this data set derive from B1. Briefly: abundance fitness (aPCA) (normalised: wild type 0, dead -1); higher = more abundant; growth selection in yeast, the domain comes from the species named. To be noted: Homo sapiens.
For the variant GYRKEQERLGIPYDPIQWSTDQVLHWVVWVMKEFSMTDIDLTTLNISGRELCSLNQEDFFQRVPRGEILWHHLELLRKY [S71H], the abundance fitness is -0.029 ± 0.079.
For GYRKEQERLGIPYDPIQWSTDQVLHWVVWVMKEFSMTDIDLTTLNISGRELCSLNQEDFFQRVPRGEILWEHLELLRKY [S71E], the abundance fitness is -0.021 ± 0.11.
GYRKEQERLGIPYDPIQWSTDQVLHWVVWVMKEFSMTDIDLTTLNISGRELCSLNQEDFFQRVPRGEILWPHLELLRKY [S71P]: the abundance fitness was -0.102 ± 0.044.
Then GYRKEQERLGIPYDPIQWSTDQVLHWVVWVMKEFSMTDIDLTTLNISGRELCSLNQEDFFQRVPRGEILWTHLELLRKY [S71T], with 0.021 ± 0.052.
With GYRKEQERLGIPYDPIQWSTDQVLHWVVWVMKEFSMTDIDLTTLNISGRELCSLNQEDFFQRVPRGEILWQHLELLRKY [S71Q] the figure was 0.01 ± 0.053.
With GYRKEQERLGIPYDPIQWSTDQVLHWVVWVMKEFSMTDIDLTTLNISGRELCSLNQEDFFQRVPRGEILWSHYELLRKY [L73Y] the figure was -0.962 ± 0.47; with GYRKEQERLGIPYDPIQWSTDQVLHWVVWVMKEFSMTDIDLTTLNISGRELCSLNQEDFFQRVPRGEILWSHCELLRKY [L73C], -0.979 ± 0.2; with GYRKEQERLGIPYDPIQWSTDQVLHWVVWVMKEFSMTDIDLTTLNISGRELCSLNQEDFFQRVPRGEILWSHWELLRKY [L73W], -0.173 ± 0.055.
With GYRKEQERLGIPYDPIQWSTDQVLHWVVWVMKEFSMTDIDLTTLNISGRELCSLNQEDFFQRVPRGEILWSHGELLRKY [L73G], the abundance fitness is -0.937 ± 0.077.
With GYRKEQERLGIPYDPIQWSTDQVLHWVVWVMKEFSMTDIDLTTLNISGRELCSLNQEDFFQRVPRGEILWSHQELLRKY [L73Q] the figure was -0.713 ± 0.22; with GYRKEQERLGIPYDPIQWSTDQVLHWVVWVMKEFSMTDIDLTTLNISGRELCSLNQEDFFQRVPRGEILWSHIELLRKY [L73I], -0.542 ± 0.088.
On to GYRKEQERLGIPYDPIQWSTDQVLHWVVWVMKEFSMTDIDLTTLNISGRELCSLNQEDFFQRVPRGEILWSHPELLRKY [L73P], for which the abundance fitness is -0.658 ± 0.063.
Then GYRKEQERLGIPYDPIQWSTDQVLHWVVWVMKEFSMTDIDLTTLNISGRELCSLNQEDFFQRVPRGEILWSHAELLRKY [L73A], with -0.736 ± 0.071; and GYRKEQERLGIPYDPIQWSTDQVLHWVVWVMKEFSMTDIDLTTLNISGRELCSLNQEDFFQRVPRGEILWSHTELLRKY [L73T], with -0.97 ± 0.15; and GYRKEQERLGIPYDPIQWSTDQVLHWVVWVMKEFSMTDIDLTTLNISGRELCSLNQEDFFQRVPRGEILWSHKELLRKY [L73K], with -0.422 ± 0.18.
As to GYRKEQERLGIPYDPIQWSTDQVLHWVVWVMKEFSMTDIDLTTLNISGRELCSLNQEDFFQRVPRGEILWSHMELLRKY [L73M], the abundance fitness is -0.347 ± 0.059.
Then GYRKEQERLGIPYDPIQWSTDQVLHWVVWVMKEFSMTDIDLTTLNISGRELCSLNQEDFFQRVPRGEILWSHVELLRKY [L73V], with -0.376 ± 0.052; and GYRKEQERLGIPYDPIQWSTDQVLHWVVWVMKEFSMTDIDLTTLNISGRELCSLNQEDFFQRVPRGEILWSHEELLRKY [L73E], with -0.758 ± 0.19; and GYRKEQERLGIPYDPIQWSTDQVLHWVVWVMKEFSMTDIDLTTLNISGRELCSLNQEDFFQRVPRGEILWSHNELLRKY [L73N], with -0.979 ± 0.23.
In the case of GYRKEQERLGIPYDPIQWSTDQVLHWVVWVMKEFSMTDIDLTTLNISGRELCSLNQEDFFQRVPRGEIYWSHLELLRKY [L69Y], the abundance fitness is -0.265 ± 0.08.
As to GYRKEQERLGIPYDPIQWSTDQVLHWVVWVMKEFSMTDIDLTTLNISGRELCSLNQEDFFQRVPRGEILVSHLELLRKY [W70V], the abundance fitness was -0.92 ± 0.1.
Then GYRKEQERLGIPYDPIQWSTDQVLHWVVWVMKEFSMTDIDLTTLNISGRELCSLNQEDFFQRVPRGEILSSHLELLRKY [W70S], with -0.913 ± 0.087.
For the variant GYRKEQERLGIPYDPIQWSTDQVLHWVVWVMKEFSMTDIDLTTLNISGRELCSLNQEDFFQRVPRGEILASHLELLRKY [W70A], the abundance fitness is -0.748 ± 0.071.
Then GYRKEQERLGIPYDPIQWSTDQVLHWVVWVMKEFSMTDIDLTTLNISGRELCSLNQEDFFQRVPRGEILQSHLELLRKY [W70Q], with -0.875 ± 0.2; and GYRKEQERLGIPYDPIQWSTDQVLHWVVWVMKEFSMTDIDLTTLNISGRELCSLNQEDFFQRVPRGEILRSHLELLRKY [W70R], with -0.526 ± 0.036.
For GYRKEQERLGIPYDPIQWSTDQVLHWVVWVMKEFSMTDIDLTTLNISGRELCSLNQEDFFQRVPRGEILFSHLELLRKY [W70F], the abundance fitness is -0.181 ± 0.083.
Then GYRKEQERLGIPYDPIQWSTDQVLHWVVWVMKEFSMTDIDLTTLNISGRELCSLNQEDFFQRVPRGEILESHLELLRKY [W70E], with -0.801 ± 0.12; and GYRKEQERLGIPYDPIQWSTDQVLHWVVWVMKEFSMTDIDLTTLNISGRELCSLNQEDFFQRVPRGEILMSHLELLRKY [W70M], with -0.557 ± 0.095.
Then GYRKEQERLGIPYDPIQWSTDQVLHWVVWVMKEFSMTDIDLTTLNISGRELCSLNQEDFFQRVPRGEILKSHLELLRKY [W70K], with -0.872 ± 0.25.
Then GYRKEQERLGIPYDPIQWSTDQVLHWVVWVMKEFSMTDIDLTTLNISGRELCSLNQEDFFQRVPRGEILNSHLELLRKY [W70N], with -0.766 ± 0.22; and GYRKEQERLGIPYDPIQWSTDQVLHWVVWVMKEFSMTDIDLTTLNISGRELCSLNQEDFFQRVPRGEILHSHLELLRKY [W70H], with -0.494 ± 0.13; and GYRKEQERLGIPYDPIQWSTDQVLHWVVWVMKEFSMTDIDLTTLNISGRELCSLNQEDFFQRVPRGEILCSHLELLRKY [W70C], with -0.793 ± 0.12.
For GYRKEQERLGIPYDPIQWSTDQVLHWVVWVMKEFSMTDIDLTTLNISGRELCSLNQEDFFQRVPRGEILTSHLELLRKY [W70T], the abundance fitness was -1.05 ± 0.16.
Then GYRKEQERLGIPYDPIQWSTDQVLHWVVWVMKEFSMTDIDLTTLNISGRELCSLNQEDFFQRVPRGEILYSHLELLRKY [W70Y], with -0.058 ± 0.082; and GYRKEQERLGIPYDPIQWSTDQVLHWVVWVMKEFSMTDIDLTTLNISGRELCSLNQEDFFQRVPRGEILGSHLELLRKY [W70G], with -0.843 ± 0.062.

These data come from the Human Domainome abundance scans (Beltran et al. 2025).
